From the supplement of paper PMC9170038

System: MS2 coat protein
Experiment: apparent KD of MS2 coat protein; designed switch direction (-1 OFF switch, 1 ON switch): -1; higher = weaker reporter binding
In short: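 Designed RNA switches with common flanks were transcribed on Illumina chips by stalled E. coli RNA polymerase and titrated with SNAP-549-labelled MS2 coat protein, from 0.7 or 1.5 nM doubling to 3 µM, in Tris-HCl pH 7.5 buffer with KCl, MgCl2, BSA, DTT, tRNA and Tween-20. Steps lasted 0.8–1.5 h (lowest) to 10–20 min (highest). Titrations ran without input, with 200 uM small-molecule ligand, or with an oligonucleotide input. Normalised cluster fluorescence was curve-fitted, and apparent KD is the per-design median over clusters.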

[1] = Eterna round: R95, input ligand: microRNA oligo, concentration not stated
[2] = input ligand: microRNA oligo, concentration not stated
[3] = Eterna round: R95, input ligand: FMN 200 uM
[4] = Eterna round: R95, input ligand: none

Sequence	apparent KD of MS2 coat protein [1] [nM]	apparent KD of MS2 coat protein (input ligand: FMN 200 uM) [nM]	apparent KD of MS2 coat protein (input ligand: none) [nM]	other results
CUUCGACAUGAGGAUCACCCAUGUCAGGAUAUUGUUUAUCUGGUUUUUUACAGAUAUGCAAGAAGGGAUGUGUU [LRO-Excl1-03] (puzzle: Exclusion 1)	26.5	–	–	–
CUUCUGUGAGGAUAUGUGAACCCGUGCCGAAAGGAUGGGAAACAGAAGGCACAUGAGGAUCACCCAUGUAAAAU [Isergeat] (puzzle: Exclusion 4)	29.1	–	–	–
CUUGAAUAAGUGAGGAUAUACUGUUAGUAAUGAUUGUAGAAGGUACAUGAGGAUCACCCAUGUUUAUUCUUUAU [JR_BME4_Sub040] (puzzle: Brourd's mod of Exclusion 4)	14.5	–	–	–
CUUGCAUUGCGAGGAUAUCCAACGUGGCUCGUGCUUACAUGAGGAUCACCCAUGUUCUACUAAAAGGAGAAGGCGCUUGGAGGA [Endixexebe] (Eterna round: R96, puzzle: Exclusion NG 2)	–	48.8	25.5	apparent KD of MS2 coat protein [2]: 16.8 nM
CUUGGAGAGGUAGGAUAUUUAUAUUCACACUCUGAUUCUUGUACACAUGAGGAUCACCCAUGUAUAGAGAAGGACUGCCAAGAG [Eternabot solution 48] (Eterna round: R96, puzzle: Exclusion NG 2)	–	21.6	21.3	apparent KD of MS2 coat protein [2]: 17.2 nM
CUUUACAAGCUAAGAUCCUACAUGAGGAUCACCCAUGUGGUCCGGUGACGUGAGUCACCGGACUUAGCUCGUCUUGU [salish99_S_TOV1_R5_096] (Eterna round: R97, puzzle: Sensor, turn-off variant 1)	–	41.5	42.6	–
CUUUACAUGCUGAGAUCCUACAUGAGGAUCACCCAUGUGGUCCGGUGACGUGAGUCACCGGACUUAGCUCGUCUUGU [salish99_S_TOV1_R5_098] (Eterna round: R97, puzzle: Sensor, turn-off variant 1)	–	169	336	–
CUUUAGUGAGGAUAUCAGUAGUAAUACAAUAGUAUUACUGCUGAGAAGGCACAUGAGGAUCACCCAUGUUCCUC [Mat - Exclusion 4 - Mod of Omei - D83] (puzzle: Exclusion 4)	33.1	–	–	–
CUUUGAUGAGGAUAUCGAGGUUAGUACAUGAGGAUCACCCAUGUUAUCCAGGUGUCGGAUCGAGAAGGUAUUGGAC [LRO-Ex5-18] (puzzle: Exclusion 5)	14.8	–	–	–
CUUUGCACGCUGCGGUCCUACAUGAGGAUCACCCAUGUGGUCUGGUGGCGUGGGUCGCCGGACUUGGCUCGUCUUGA [salish99_S_TOV1_R5_040] (Eterna round: R97, puzzle: Sensor, turn-off variant 1)	–	18.5	18.4	–
CUUUGGGCAGGAUAUGCUGUUUGUGACAUGAGGAUCACCCAUGUGAUGCAGUUUGGGUGUGCAGAAGGGCCUGAGA [JR_E5_Sub030] (puzzle: Exclusion 5)	72.6	–	–	apparent KD of MS2 coat protein [3]: 115 nM; apparent KD of MS2 coat protein [4]: 110 nM
CUUUUAAAUGUGAGGAUAUACUGUUAUUAAAGUUAGUAGAAGGUACAUGAGGAUCACCCAUGUUAAUUACUCUA [JR_BME4_Sub048] (puzzle: Brourd's mod of Exclusion 4)	12.5	–	–	apparent KD of MS2 coat protein [3]: 15.1 nM; apparent KD of MS2 coat protein [4]: 12.6 nM
CUUUUGCAACAAGCCAAUAACAUGAGGAUCACCCAUGUCCUGUUGAGGUCUUCCGUCGUUCUUGCUCACGUCUUACG [Eternabot (L1) Solution 50] (Eterna round: R97, puzzle: Sensor, turn-off variant 1)	–	54.8	56.3	–
CUUUUGUGAGGAUAUCAGUAGUAAAUAAAUAAAAUAACUACUGAGAAGGCACAUGAGGAUCACCCAUGUUCCUC [Mat - Exclusion 4 - Mod of Salish - D69] (puzzle: Exclusion 4)	38.6	–	–	–
CUUUUGUGAGGAUAUCAGUAGUAAUACAAUAGUAUUACUGCUGAGAAGGCACAUGAGGAUCACCCAUGUUCCUC [Ex4 344 Omei mod 10] (puzzle: Exclusion 4)	53.6	–	–	–
CUUUUGUGAGGAUAUCAGUAGUAAUUAAAUAAAAUUACUACUGAGAAGGCACAUGAGGAUCACCCAUGUUCCUC [salish99_ex3_r3_077] (puzzle: Exclusion 4)	39.5	–	–	–
CUUUUGUGAGGAUAUCAGUAGUAGAACAAUAGUACUACUACUGAGAAGGCACAUGAGGAUCACCCAUGUUCCUC [Fiskers Ex 4 Super stable 44 mod 2] (puzzle: Exclusion 4)	52.3	–	–	–

Sequence	apparent KD of MS2 coat protein [1] [nM]	apparent KD of MS2 coat protein (input ligand: FMN 200 uM) [nM]	apparent KD of MS2 coat protein (input ligand: none) [nM]	other results
CUUUUGUGAGGAUAUCAGUAGUAGAACAAUAGUACUACUACUGAGAAGGCACAUGAGGAUCACCCAUGUUCCUU [Fiskers Ex 4 Super stable 44 mod 6] (puzzle: Exclusion 4)	15.4	–	–	–
CUUUUGUGAGGAUAUCAGUAGUUAAAUAAUAAAAUUACUACUGAGAAGGCACAUGAGGAUCACCCAUGUUCCUC [Mat - Exclusion 4 - Mod of Salish - D70] (Eterna round: R96, puzzle: Exclusion 4)	–	274	40	apparent KD of MS2 coat protein [2]: 35.1 nM
CUUUUGUGAGGAUAUCAGUAGUUAAAUAAUAAAAUUACUACUGAGAAGGCACAUGAGGAUCACCCAUGUUCCUC [Mat - Exclusion 4 - Mod of Salish - D70] (puzzle: Exclusion 4)	35.5	–	–	–
CUUUUGUGAGGAUAUCAGUUGUAAAAAAAUAAAAUUACUACUGAGAAGGCACAUGAGGAUCACCCAUGUUCCUC [salish99_ex4_r3_033] (puzzle: Exclusion 4)	33.2	–	–	–
CUUUUGUGAGGAUAUUAGUAGUAAAUAAAUAAAAUUACUACUGAGAAGGCACAUGAGGAUCACCCAUGUUUCUC [salish99_ex4_r3_065] (Eterna round: R96, puzzle: Exclusion 4)	–	278	35.5	apparent KD of MS2 coat protein [2]: 31.2 nM
CUUUUGUGAGGAUAUUAGUAGUAAAUAAAUAAAAUUACUACUGAGAAGGCACAUGAGGAUCACCCAUGUUUCUC [salish99_ex4_r3_065] (puzzle: Exclusion 4)	31.9	–	–	–
CUUUUGUGAGGAUAUUAGUAGUAAAUAAAUAAAAUUUCUACUGAGAAGGCACAUGAGGAUCACCCAUGUUCCUC [salish99_ex4_r3_061] (Eterna round: R96, puzzle: Exclusion 4)	–	347	33.9	apparent KD of MS2 coat protein [2]: 34 nM
CUUUUGUGAGGAUAUUAGUAGUAAAUAAAUAAAAUUUCUACUGAGAAGGCACAUGAGGAUCACCCAUGUUCCUC [salish99_ex4_r3_061] (puzzle: Exclusion 4)	33.2	–	–	–
CUUUUGUGAGGAUAUUAGUAGUAAAUAAUUAAAAUUAUUACUGAGAAGGCACAUGAGGAUCACCCAUGUAACUC [JR_Ex4_Sub027] (Eterna round: R97, puzzle: Exclusion 4)	–	400	49.9	–
CUUUUGUGAGGAUAUUAGUAGUAAAUAUAUAAAAUUACUACUGAGAAGGCACAUGAGGAUCACCCAUGUUCCUC [salish99_ex4_r3_055] (puzzle: Exclusion 4)	36.2	–	–	–
CUUUUGUGAGGAUAUUAGUAGUAUAUAAAUAAAAUUACUACUGAGAAGGCACAUGAGGAUCACCCAUGUUCCUC [salish99_ex4_r3_052] (puzzle: Exclusion 4)	30.4	–	–	–
CUUUUGUGAGGAUAUUGGUAGUAAAUAAAUAAAAUUAUUACCGAGAAGGCACAUGAGGAUCACCCAUGUUCCUC [Salish 062 v17] (Eterna round: R97, puzzle: Exclusion 4)	–	823	50.7	–
CUUUUGUUAGGAUAUUAGUAGUAAAUAAAUAAAAUUACUACUGAGAAGGCACAUGAGGAUCACCCAUGUUCCUC [salish99_ex4_r3_045] (puzzle: Exclusion 4)	25.3	–	–	–
CUUUUUUCUGUAAGGAUAUAGCCCGCGAGAUGUGGCUAGAAGGUACAUGAGGAUCACCCAUGUGUGUCCACAUU [Eternabot (L1) Solution 55] (Eterna round: R97, puzzle: Brourd's mod of Exclusion 4)	–	141	46.8	–
GAAAACGAAGAGGAUAUUUGAUAUCAUAGCUUCAAAGAAGGCUUCACAUGAGGAUCACCCAUGUGAUCUUCAAA [jl-ex6-4.06 ViennaUCT mod] (Eterna round: R97, puzzle: Exclusion 6)	–	95.8	22.7	–
GAAAACGCAGAGGAUAUAUCAGAUCAAAGCUGCAUAGAAGGCUGCACAUGAGGAUCACCCAUGUGGUCUUCAAA [jl-ex6-4.01 ViennaUCT mod] (Eterna round: R97, puzzle: Exclusion 6)	–	243	20.9	–
GAAAACGCAGAGGAUAUAUCAGAUCAAAGCUGCAUAGAAGGCUGCACAUGAGGAUCACCCAUGUGGUCUUUAAA [jl-ex6-4.00 ViennaUCT mod] (Eterna round: R97, puzzle: Exclusion 6)	–	218	22	–
